Data set [1] has as its system HeLa Kyoto. Kind of data set: solubility change mitosis vs G1/S (difference of NP-40 vs SDS log2 ratios) (log2 ratio difference); higher = more soluble in mitosis.
Data set [2] deals with HeLa Kyoto. Kind of data set: thermal stability score vs G1/S (z-score of summed log2 fold changes over temperatures); higher = more thermally stable than in G1/S.
The test system of data set [3] is HeLa Kyoto. Kind of data set: solubility in G1/S (NP-40 vs SDS abundance) (log2 ratio); higher = more soluble. Conditions: cell cycle stage: G1/S.
The subject of data set [4] is HeLa Kyoto. Kind of data set: melting temperature (median over replicates), in situ; higher = more thermally stable.
Setting [5] is: cell cycle stage: early G1 (4.5 h after nocodazole release).
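Throughout, for melting temperature (median over replicates), in situ: HeLa Kyoto cells synchronized by double thymidine or nocodazole block, proteins quantified by TMT10plex mass spectrometry, three independent biological replicates.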
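Throughout, for solubility change mitosis vs G1/S (difference of NP-40 vs SDS log2 ratios): synchronized HeLa Kyoto cells (double thymidine block for G1/S, nocodazole release for mitosis), protein amounts in NP-40 versus SDS lysates quantified by mass spectrometry, three biological replicates.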
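Throughout, for solubility in G1/S (NP-40 vs SDS abundance): HeLa Kyoto cells arrested at G1/S by double thymidine block, proteins quantified by TMT10plex mass spectrometry in mild NP-40 versus SDS extracts, three biological replicates.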
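Throughout, for thermal stability score vs G1/S (z-score of summed log2 fold changes over temperatures): synchronized HeLa Kyoto cells, proteins quantified by TMT10plex mass spectrometry, three biological replicates, mitosis taken 0.5 h after nocodazole release, G1/S directly after double thymidine block.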

Turning to LSM14B, in the data set on HeLa Kyoto [1], the “solubility change mitosis (log2)” value stood at 0.137. Further, the thermal stability score in the data set with HeLa Kyoto [2] (setting [5]) is 0.76; with HeLa Kyoto [2] (cell cycle stage: mitosis), 1.45. Besides, the “solubility in G1/S (log2)” value with HeLa Kyoto [3] amounted to 0.0485. Moreover, the melting temperature in the data set on HeLa Kyoto [4] (cell cycle stage: G1/S) came to 49.6 °C; with HeLa Kyoto [4] (cell cycle stage: mitosis) it was 50 °C.

In the case of “MSWVQATLLARGLCRAWGGTCGAALTGTSISQVPRRLPRGLHCSAAAHSSEQSLVPSPPEPRQRPTKALVPFEDLFGQAPGGERDKASFLQTVQKFAEHSVRKRGHIDFIYLALRKMREYGVERDLAVYNQLLNIFPKEVFRPRNIIQRIFVHYPRQQECGIAVLEQMENHGVMPNKETEFLLIQIFGRKSYPMLKLVRLKLWFPRFMNVNPFPVPRDLPQDPVELAMFGLRHMEPDLSARVTIYQVPLPKDSTGAADPPQPHIVGIQSPDQQAALARHNPARPVFVEGPFSLWLRNKCVYYHILRADLLPPEEREVEETPEEWNLYYPMQLDLEYVRSGWDNYEFDINEVEEGPVFAMCMAGAHDQATMAKWIQGLQETNPTLAQIPVVFRLAGSTRELQTSSAGLEEPPLPEDHQEEDDNLQRQQQGQS [ECSIT]”, the “solubility change mitosis (log2)” value in the data set with HeLa Kyoto [1] is -0.1. The values for the thermal stability score in the data set with HeLa Kyoto [2] (setting [5]) and in the data set on HeLa Kyoto [2] (cell cycle stage: mitosis) were 2.4 and 3.63, respectively. For the same substance, the “solubility in G1/S (log2)” value in the data set with HeLa Kyoto [3] was -0.0136. The values for the melting temperature in the data set with HeLa Kyoto [4] (cell cycle stage: G1/S) and in the data set with HeLa Kyoto [4] (cell cycle stage: mitosis) were 54.4 °C and 56.1 °C, respectively.

For the substance “MEQPPAPKSKLKKLSEDSLTKQPEEVFDVLEKLGEGSYGSVFKAIHKESGQVVAIKQVPVESDLQEIIKEISIMQQCDSPYVVKYYGSYFKNTDLWIVMEYCGAGSVSDIIRLRNKTLIEDEIATILKSTLKGLEYLHFMRKIHRDIKAGNILLNTEGHAKLADFGVAGQLTDTMAKRNTVIGTPFWMAPEVIQEIGYNCVADIWSLGITSIEMAEGKPPYADIHPMRAIFMIPTNPPPTFRKPELWSDDFTDFVKKCLVKNPEQRATATQLLQHPFIKNAKPVSILRDLITEAMEIKAKRHEEQQRELEEEEENSDEDELDSHTMVKTSVESVGTMRATSTMSEGAQTMIEHNSTMLESDLGTMVINSEDEEEEDGTMKRNATSPQVQRPSFMDYFDKQDFKNKSHENCNQNMHEPFPMSKNVFPDNWKVPQDGDFDFLKNLSLEELQMRLKALDPMMEREIEELRQRYTAKRQPILDAMDAKKRRQQNF [STK3]”, the “solubility change mitosis (log2)” value in the data set on HeLa Kyoto [1] is -0.13. Further, the thermal stability score is 1.31 in the data set on HeLa Kyoto [2] (setting [5]) and 1.36 with HeLa Kyoto [2] (cell cycle stage: mitosis). The “solubility in G1/S (log2)” value in the data set on HeLa Kyoto [3] was 0.0428. In addition, the melting temperature in the data set on HeLa Kyoto [4] (cell cycle stage: G1/S) came to 53 °C; with HeLa Kyoto [4] (cell cycle stage: mitosis) it was 53.3 °C.

With “MAPVHGDDSLSDSGSFVSSRARREKKSKKGRQEALERLKKAKAGEKYKYEVEDFTGVYEEVDEEQYSKLVQARQDDDWIVDDDGIGYVEDGREIFDDDLEDDALDADEKGKDGKARNKDKRNVKKLAVTKPNNIKSMFIACAGKKTADKAVDLSKDGLLGDILQDLNTETPQITPPPVMILKKKRSIGASPNPFSVHTATAVPSGKIASPVSRKEPPLTPVPLKRAEFAGDDVQVESTEEEQESGAMEFEDGDFDEPMEVEEVDLEPMAAKAWDKESEPAEEVKQEADSGKGTVSYLGSFLPDVSCWDIDQEGDSSFSVQEVQVDSSHLPLVKGADEEQVFHFYWLDAYEDQYNQPGVVFLFGKVWIESAETHVSCCVMVKNIERTLYFLPREMKIDLNTGKETGTPISMKDVYEEFDEKIATKYKIMKFKSKPVEKNYAFEIPDVPEKSEYLEVKYSAEMPQLPQDLKGETFSHVFGTNTSSLELFLMNRKIKGPCWLEVKSPQLLNQPVSWCKVEAMALKPDLVNVIKDVSPPPLVVMAFSMKTMQNAKNHQNEIIAMAALVHHSFALDKAAPKPPFQSHFCVVSKPKDCIFPYAFKEVIEKKNVKVEVAATERTLLGFFLAKVHKIDPDIIVGHNIYGFELEVLLQRINVCKAPHWSKIGRLKRSNMPKLGGRSGFGERNATCGRMICDVEISAKELIRCKSYHLSELVQQILKTERVVIPMENIQNMYSESSQLLYLLEHTWKDAKFILQIMCELNVLPLALQITNIAGNIMSRTLMGGRSERNEFLLLHAFYENNYIVPDKQIFRKPQQKLGDEDEEIDGDTNKYKKGRKKAAYAGGLVLDPKVGFYDKFILLLDFNSLYPSIIQEFNICFTTVQRVASEAQKVTEDGEQEQIPELPDPSLEMGILPREIRKLVERRKQVKQLMKQQDLNPDLILQYDIRQKALKLTANSMYGCLGFSYSRFYAKPLAALVTYKGREILMHTKEMVQKMNLEVIYGDTDSIMINTNSTNLEEVFKLGNKVKSEVNKLYKLLEIDIDGVFKSLLLLKKKKYAALVVEPTSDGNYVTKQELKGLDIVRRDWCDLAKDTGNFVIGQILSDQSRDTIVENIQKRLIEIGENVLNGSVPVSQFEINKALTKDPQDYPDKKSLPHVHVALWINSQGGRKVKAGDTVSYVICQDGSNLTASQRAYAPEQLQKQDNLTIDTQYYLAQQIHPVVARICEPIDGIDAVLIATWLGLDPTQFRVHHYHKDEENDALLGGPAQLTDEEKYRDCERFKCPCPTCGTENIYDNVFDGSGTDMEPSLYRCSNIDCKASPLTFTVQLSNKLIMDIRRFIKKYYDGWLICEEPTCRNRTRHLPLQFSRTGPLCPACMKATLQPEYSDKSLYTQLCFYRYIFDAECALEKLTTDHEKDKLKKQFFTPKVLQDYRKLKNTAEQFLSRSGYSEVNLSKLFAGCAVKS [POLA1]”, the “solubility change mitosis (log2)” value with HeLa Kyoto [1] is -0.107. Further, the figures for the thermal stability score in the data set on HeLa Kyoto [2] (setting [5]) and in the data set on HeLa Kyoto [2] (cell cycle stage: mitosis) were 1.03 and 3.37, respectively. For the same substance, in the data set on HeLa Kyoto [3], the “solubility in G1/S (log2)” value is -0.19. Moreover, the melting temperature is 49 °C with HeLa Kyoto [4] (cell cycle stage: G1/S) and 50.1 °C in the data set on HeLa Kyoto [4] (cell cycle stage: mitosis).

With “MADAASQVLLGSGLTILSQPLMYVKVLIQVGYEPLPPTIGRNIFGRQVCQLPGLFSYAQHIASIDGRRGLFTGLTPRLCSGVLGTVVHGKVLQHYQESDKGEELGPGNVQKEVSSSFDHVIKETTREMIARSAATLITHPFHVITLRSMVQFIGRESKYCGLCDSIITIYREEGILGFFAGLVPRLLGDILSLWLCNSLAYLVNTYALDSGVSTMNEMKSYSQAVTGFFASMLTYPFVLVSNLMAVNNCGLAGGCPPYSPIYTSWIDCWCMLQKEGNMSRGNSLFFRKVPFGKTYCCDLKMLI [MTCH2]”, the “solubility change mitosis (log2)” value in the data set with HeLa Kyoto [1] is -0.018. For the same substance, the thermal stability score in the data set with HeLa Kyoto [2] (setting [5]) is -2.66; with HeLa Kyoto [2] (cell cycle stage: mitosis), -2.99. Moreover, in the data set on HeLa Kyoto [3], the “solubility in G1/S (log2)” value worked out at 0.00924. Further, the melting temperature is 56.6 °C with HeLa Kyoto [4] (cell cycle stage: G1/S) and 57 °C in the data set with HeLa Kyoto [4] (cell cycle stage: mitosis).

On to “MAAERGAGQQQSQEMMEVDRRVESEESGDEEGKKHSSGIVADLSEQSLKDGEERGEEDPEEEHELPVDMETINLDRDAEDVDLNHYRIGKIEGFEVLKKVKTLCLRQNLIKCIENLEELQSLRELDLYDNQIKKIENLEALTELEILDISFNLLRNIEGVDKLTRLKKLFLVNNKISKIENLSNLHQLQMLELGSNRIRAIENIDTLTNLESLFLGKNKITKLQNLDALTNLTVLSMQSNRLTKIEGLQNLVNLRELYLSHNGIEVIEGLENNNKLTMLDIASNRIKKIENISHLTELQEFWMNDNLLESWSDLDELKGARSLETVYLERNPLQKDPQYRRKVMLALPSVRQIDATFVRF [PPP1R7]”, for which, in the data set with HeLa Kyoto [1], the “solubility change mitosis (log2)” value worked out at 0.033. For the same substance, the thermal stability score in the data set on HeLa Kyoto [2] (setting [5]) was -1.16; in the data set with HeLa Kyoto [2] (cell cycle stage: mitosis), -2.37. Moreover, the “solubility in G1/S (log2)” value in the data set on HeLa Kyoto [3] is 0.332. The melting temperature in the data set with HeLa Kyoto [4] (cell cycle stage: G1/S) stood at 52.7 °C; in the data set with HeLa Kyoto [4] (cell cycle stage: mitosis), 52.8 °C.

For the origin of these results see the supplement of paper PMC5998384.
